Molecular target: PstS1 (Rv0934), recombinant, wild type (Mycobacterium tuberculosis H37Rv, UniProt P9WGU1)
Test: SPR
Conditions: both partners purified

Chain of PstS1 (Rv0934), recombinant, wild type (P9WGU1 25-374): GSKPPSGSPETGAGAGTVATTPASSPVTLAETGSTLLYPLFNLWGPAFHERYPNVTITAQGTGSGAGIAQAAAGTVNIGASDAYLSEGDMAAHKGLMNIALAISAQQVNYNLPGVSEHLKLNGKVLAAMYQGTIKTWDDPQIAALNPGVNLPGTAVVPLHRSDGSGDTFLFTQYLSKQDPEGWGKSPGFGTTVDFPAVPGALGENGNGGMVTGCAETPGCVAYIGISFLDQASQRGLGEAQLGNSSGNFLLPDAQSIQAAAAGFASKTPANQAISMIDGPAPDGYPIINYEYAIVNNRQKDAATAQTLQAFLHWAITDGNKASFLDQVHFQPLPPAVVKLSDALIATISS

B1: p4-36gl, predicted germline version of mAb p4-36 (antibody, V domains shown)
VH: EVQLVESGGGLVQPGRSLRLSCTASGFTFGDYAMSWVRQAPGKGLEWVGFIRSKAYGGTTEYAASVKGRFTISRDDSKSIAYLQMNSLKTEDTAVYYCTGPRPYYDSSGYYPYYFDYWGQGTLVTVSS
VL: QSALTQPRSVSGSPGQSVTISCTGTSSDVGGYNYVSWYQQHPGKAPKLMIYDVSKRPSGVPDRFSGSKSGNTASLTISGLQAEDEADYYCCSYAGSYTYVVFGGGTKLTVL
notes: also called germline (gl) version of p4-36
**Q.** How did the “fold reduction in affinity against the mature p4-36” value turn out when B1 was run?
**A.** The value was 4.7 fold.

— article PMC7840946 (Nature Communications, 2021)
